Values quoted from earlier work in article PMC6151437, “Antibacterial Synthetic Peptides Derived from Bovine Lactoferricin Exhibit Cytotoxic Effect against MDA-MB-468 and MDA-MB-231 Breast Cancer Cell Lines” (Molecules : A Journal of Synthetic Chemistry and Natural …, 2017).

System: HT-29 cells
Parameters: method as in PMID 24140317
Conditions: maximum effects at 12 h of treatment

B1: BLF: Bovine lactoferrin, a milk protein (protein, UniProt P24627 20-708, looked up)
Lactotransferrin: APRKNVRWCTISQPEWFKCRRWQWRMKKLGAPSITCVRRAFALECIRAIAEKKADAVTLDGGMVFEAGRDPYKLRPVAAEIYGTKESPQTHYYAVAVVKKGSNFQLDQLQGRKSCHTGLGRSAGWIIPMGILRPYLSWTESLEPLQGAVAKFFSASCVPCIDRQAYPNLCQLCKGEGENQCACSSREPYFGYSGAFKCLQDGAGDVAFVKETTVFENLPEKADRDQYELLCLNNSRAPVDAFKECHLAQVPSHAVVARSVDGKEDLIWKLLSKAQEKFGKNKSRSFQLFGSPPGQRDLLFKDSALGFLRIPSKVDSALYLGSRYLTTLKNLRETAEEVKARYTRVVWCAVGPEEQKKCQQWSQQSGQNVTCATASTTDDCIVLVLKGEADALNLDGGYIYTAGKCGLVPVLAENRKSSKHSSLDCVLRPTEGYLAVAVVKKANEGLTWNSLKDKKSCHTAVDRTAGWNIPMGLIVNQTGSCAFDEFFSQSCAPGADPKSRLCALCAGDDQGLDKCVPNSKEKYYGYTGAFRCLAEDVGDVAFVKNDTVWENTNGESTADWAKNLNREDFRLLCLDGTRKPVTEAQSCHLAVAPNHAVVSRSDRAAHVKQVLLHQQALFGKNGKNCPDKFCLFKSETKNLLFNDNTECLAKLGGRPTYEEYLGTEYVTAIANLKKCSTSPLLEACAFLTR
**Q.** For B1, which “optimal concentration for cytotoxic activity and apoptosis” value is on record?
**A.** 800 µg/mL
